Results published in patent US20220401475A1 (Memorial Sloan Kettering, published 2022).

Molecular target: T1, B-cell maturation antigen (BCMA) (human, UniProt Q02223 1-184)
T1 construct: whole, on cells
T1 sequence (looked up): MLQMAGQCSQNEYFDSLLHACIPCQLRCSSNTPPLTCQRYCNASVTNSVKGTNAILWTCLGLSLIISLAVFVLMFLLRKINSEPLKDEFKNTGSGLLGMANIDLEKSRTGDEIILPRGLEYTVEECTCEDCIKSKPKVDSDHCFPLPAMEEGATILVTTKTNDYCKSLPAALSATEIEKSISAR
Assay: Flow cytometric trogocytosis assay: 1:1 co-culture of CAR T cells with KMS-12-BM for 0, 1, 2 and 4 h. BCMA loss from the tumour cells (upper panel) and BCMA gain on CAR T cells (lower panel). No concentration axis.

binding result: no binding
B1: 22-BBζ CAR (CD22-BBζ-DsRed, m971 CD22-specific scFv) (other)
chain: QVQLQQSGPGLVKPSQTLSLTCAISGDSVSSNSAAWNWIRQSPSRGLEWLGRTYYRSKWYNDYAVSVKSRITINPDTSKNQFSLQLNSVTPEDTAVYYCAREVTGDLEDAFDIWGQGTMVTVSSGGGGSDIQMTQSPSSLSASVGDRVTITCRASQTIWSYLNWYQQRPGKAPNLLIYAASSLQSGVPSRFSGRGSGTDFTLTISSLQAEDFATYYCQQSYSIPQTFGQGTKLEIKAAAPTTTPAPRPPTPAPTIASQPLSLRPEACRPAAGGAVHTRGLDFACDIYIWAPLAGTCGVLLLSLVITLYCNKRGRKKLLYIFKQPFMRPVQTTQEEDGCSCRFPEEEEGGCELRVKFSRSADAPAYQQGQNQLYNELNLGRREEYDVLDKRRGRDPEMGGKPRRKNPQEGLYNELQKDKMAEAYSEIGMKGERRRGKGHDGLYQGLSTATKDTYDALHMQALPPR
notes: Chimeric antigen receptor on human T cells
